# Experimental data published in patent US20140206609A1 (Sanofi, published 2014).
# *1 amine or outer side, *2 acyl side, *3 side chain or, on linkers, in order; H or OH if unused. Where no end group is shown, it is not given here. Side-chain parts run from the residue outwards. [ ]: non-standard residue; d: D form. The star is where a group is joined. γGlu = O=C(O)[C@H](CCC(=O)[*:2])N[*:1]; Stearoyl = CCCCCCCCCCCCCCCCCC(=O)*; Palmitoyl = CCCCCCCCCCCCCCCC(=O)*; Aib = CC(C)(N)C(=O)O; βAla = NCCC(=O)O
# T1: human GIP receptor (human, UniProt P48546 22-466)
# T1 sequence (looked up): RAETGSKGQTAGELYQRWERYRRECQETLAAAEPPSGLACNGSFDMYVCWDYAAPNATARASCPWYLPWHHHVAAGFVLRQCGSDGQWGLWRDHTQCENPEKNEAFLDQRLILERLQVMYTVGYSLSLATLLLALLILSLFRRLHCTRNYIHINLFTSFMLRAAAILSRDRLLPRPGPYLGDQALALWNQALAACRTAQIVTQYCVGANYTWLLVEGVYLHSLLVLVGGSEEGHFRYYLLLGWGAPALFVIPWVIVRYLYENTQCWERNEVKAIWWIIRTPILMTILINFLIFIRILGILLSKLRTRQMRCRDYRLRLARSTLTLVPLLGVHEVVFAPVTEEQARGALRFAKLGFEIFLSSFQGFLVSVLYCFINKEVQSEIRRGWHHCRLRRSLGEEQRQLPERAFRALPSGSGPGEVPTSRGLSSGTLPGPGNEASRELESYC
# B1: SEQ ID NO: 18 (peptide)
# peptide: Y[Aib]EGTFTSDLSIQK([βAla-βAla-Stearoyl])EKRAA[Aib]EFIEWLKNTGPSSGAPPPS-NH2
# modifications: N-terminus assumed
# SMILES: CCCCCCCCCCCCCCCCCC(=O)NCCC(=O)NCCC(=O)NCCCC[C@H](NC(=O)[C@H](CCC(N)=O)NC(=O)[C@@H](NC(=O)[C@H](CO)NC(=O)[C@H](CC(C)C)NC(=O)[C@H](CC(=O)O)NC(=O)[C@H](CO)NC(=O)[C@@H](NC(=O)[C@H](Cc1ccccc1)NC(=O)[C@@H](NC(=O)CNC(=O)[C@H](CCC(=O)O)NC(=O)C(C)(C)NC(=O)[C@@H](N)Cc1ccc(O)cc1)[C@@H](C)O)[C@@H](C)O)[C@@H](C)CC)C(=O)N[C@@H](CCC(=O)O)C(=O)N[C@@H](CCCCN)C(=O)N[C@@H](CCCNC(=N)N)C(=O)N[C@@H](C)C(=O)N[C@@H](C)C(=O)NC(C)(C)C(=O)N[C@@H](CCC(=O)O)C(=O)N[C@@H](Cc1ccccc1)C(=O)N[C@H](C(=O)N[C@@H](CCC(=O)O)C(=O)N[C@@H](Cc1c[nH]c2ccccc12)C(=O)N[C@@H](CC(C)C)C(=O)N[C@@H](CCCCN)C(=O)N[C@@H](CC(N)=O)C(=O)N[C@H](C(=O)NCC(=O)N1CCC[C@H]1C(=O)N[C@@H](CO)C(=O)N[C@@H](CO)C(=O)NCC(=O)N[C@@H](C)C(=O)N1CCC[C@H]1C(=O)N1CCC[C@H]1C(=O)N1CCC[C@H]1C(=O)N[C@@H](CO)C(N)=O)[C@@H](C)O)[C@@H](C)CC
# B2: SEQ ID NO: 8 (peptide)
# peptide: Y[Aib]QGTFTSDLSIQK([γGlu-Palmitoyl])EKRAA[Aib]EFIEWLKNTGPSSGAPPPS-NH2
# modifications: N-terminus assumed
# SMILES: CCCCCCCCCCCCCCCC(=O)N[C@@H](CCC(=O)NCCCC[C@H](NC(=O)[C@H](CCC(N)=O)NC(=O)[C@@H](NC(=O)[C@H](CO)NC(=O)[C@H](CC(C)C)NC(=O)[C@H](CC(=O)O)NC(=O)[C@H](CO)NC(=O)[C@@H](NC(=O)[C@H](Cc1ccccc1)NC(=O)[C@@H](NC(=O)CNC(=O)[C@H](CCC(N)=O)NC(=O)C(C)(C)NC(=O)[C@@H](N)Cc1ccc(O)cc1)[C@@H](C)O)[C@@H](C)O)[C@@H](C)CC)C(=O)N[C@@H](CCC(=O)O)C(=O)N[C@@H](CCCCN)C(=O)N[C@@H](CCCNC(=N)N)C(=O)N[C@@H](C)C(=O)N[C@@H](C)C(=O)NC(C)(C)C(=O)N[C@@H](CCC(=O)O)C(=O)N[C@@H](Cc1ccccc1)C(=O)N[C@H](C(=O)N[C@@H](CCC(=O)O)C(=O)N[C@@H](Cc1c[nH]c2ccccc12)C(=O)N[C@@H](CC(C)C)C(=O)N[C@@H](CCCCN)C(=O)N[C@@H](CC(N)=O)C(=O)N[C@H](C(=O)NCC(=O)N1CCC[C@H]1C(=O)N[C@@H](CO)C(=O)N[C@@H](CO)C(=O)NCC(=O)N[C@@H](C)C(=O)N1CCC[C@H]1C(=O)N1CCC[C@H]1C(=O)N1CCC[C@H]1C(=O)N[C@@H](CO)C(N)=O)[C@@H](C)O)[C@@H](C)CC)C(=O)O
# B3: SEQ ID NO: 10 (peptide)
# peptide: Y[Aib]EGTFTSDLSIQK([γGlu-Palmitoyl])ESRAAQDFIEWLKAGGPSSGAPPPS-NH2
# modifications: N-terminus assumed
# SMILES: CCCCCCCCCCCCCCCC(=O)N[C@@H](CCC(=O)NCCCC[C@H](NC(=O)[C@H](CCC(N)=O)NC(=O)[C@@H](NC(=O)[C@H](CO)NC(=O)[C@H](CC(C)C)NC(=O)[C@H](CC(=O)O)NC(=O)[C@H](CO)NC(=O)[C@@H](NC(=O)[C@H](Cc1ccccc1)NC(=O)[C@@H](NC(=O)CNC(=O)[C@H](CCC(=O)O)NC(=O)C(C)(C)NC(=O)[C@@H](N)Cc1ccc(O)cc1)[C@@H](C)O)[C@@H](C)O)[C@@H](C)CC)C(=O)N[C@@H](CCC(=O)O)C(=O)N[C@@H](CO)C(=O)N[C@@H](CCCNC(=N)N)C(=O)N[C@@H](C)C(=O)N[C@@H](C)C(=O)N[C@@H](CCC(N)=O)C(=O)N[C@@H](CC(=O)O)C(=O)N[C@@H](Cc1ccccc1)C(=O)N[C@H](C(=O)N[C@@H](CCC(=O)O)C(=O)N[C@@H](Cc1c[nH]c2ccccc12)C(=O)N[C@@H](CC(C)C)C(=O)N[C@@H](CCCCN)C(=O)N[C@@H](C)C(=O)NCC(=O)NCC(=O)N1CCC[C@H]1C(=O)N[C@@H](CO)C(=O)N[C@@H](CO)C(=O)NCC(=O)N[C@@H](C)C(=O)N1CCC[C@H]1C(=O)N1CCC[C@H]1C(=O)N1CCC[C@H]1C(=O)N[C@@H](CO)C(N)=O)[C@@H](C)CC)C(=O)O
# B4: SEQ ID NO: 38 (peptide)
# peptide: Y[Aib]QGTFTSDLSIQK([γGlu-Palmitoyl])DKRAA[Aib]EFIEWLKNTGPSSGAPPPS-NH2
# modifications: N-terminus assumed
# SMILES: CCCCCCCCCCCCCCCC(=O)N[C@@H](CCC(=O)NCCCC[C@H](NC(=O)[C@H](CCC(N)=O)NC(=O)[C@@H](NC(=O)[C@H](CO)NC(=O)[C@H](CC(C)C)NC(=O)[C@H](CC(=O)O)NC(=O)[C@H](CO)NC(=O)[C@@H](NC(=O)[C@H](Cc1ccccc1)NC(=O)[C@@H](NC(=O)CNC(=O)[C@H](CCC(N)=O)NC(=O)C(C)(C)NC(=O)[C@@H](N)Cc1ccc(O)cc1)[C@@H](C)O)[C@@H](C)O)[C@@H](C)CC)C(=O)N[C@@H](CC(=O)O)C(=O)N[C@@H](CCCCN)C(=O)N[C@@H](CCCNC(=N)N)C(=O)N[C@@H](C)C(=O)N[C@@H](C)C(=O)NC(C)(C)C(=O)N[C@@H](CCC(=O)O)C(=O)N[C@@H](Cc1ccccc1)C(=O)N[C@H](C(=O)N[C@@H](CCC(=O)O)C(=O)N[C@@H](Cc1c[nH]c2ccccc12)C(=O)N[C@@H](CC(C)C)C(=O)N[C@@H](CCCCN)C(=O)N[C@@H](CC(N)=O)C(=O)N[C@H](C(=O)NCC(=O)N1CCC[C@H]1C(=O)N[C@@H](CO)C(=O)N[C@@H](CO)C(=O)NCC(=O)N[C@@H](C)C(=O)N1CCC[C@H]1C(=O)N1CCC[C@H]1C(=O)N1CCC[C@H]1C(=O)N[C@@H](CO)C(N)=O)[C@@H](C)O)[C@@H](C)CC)C(=O)O
# B5: SEQ ID NO: 39 (peptide)
# peptide: Y[Aib]EGTFTSDLSIQK([γGlu-Palmitoyl])ESRAAQEFIEWLKAGGPSSGAPPPS-NH2
# modifications: N-terminus assumed
# SMILES: CCCCCCCCCCCCCCCC(=O)N[C@@H](CCC(=O)NCCCC[C@H](NC(=O)[C@H](CCC(N)=O)NC(=O)[C@@H](NC(=O)[C@H](CO)NC(=O)[C@H](CC(C)C)NC(=O)[C@H](CC(=O)O)NC(=O)[C@H](CO)NC(=O)[C@@H](NC(=O)[C@H](Cc1ccccc1)NC(=O)[C@@H](NC(=O)CNC(=O)[C@H](CCC(=O)O)NC(=O)C(C)(C)NC(=O)[C@@H](N)Cc1ccc(O)cc1)[C@@H](C)O)[C@@H](C)O)[C@@H](C)CC)C(=O)N[C@@H](CCC(=O)O)C(=O)N[C@@H](CO)C(=O)N[C@@H](CCCNC(=N)N)C(=O)N[C@@H](C)C(=O)N[C@@H](C)C(=O)N[C@@H](CCC(N)=O)C(=O)N[C@@H](CCC(=O)O)C(=O)N[C@@H](Cc1ccccc1)C(=O)N[C@H](C(=O)N[C@@H](CCC(=O)O)C(=O)N[C@@H](Cc1c[nH]c2ccccc12)C(=O)N[C@@H](CC(C)C)C(=O)N[C@@H](CCCCN)C(=O)N[C@@H](C)C(=O)NCC(=O)NCC(=O)N1CCC[C@H]1C(=O)N[C@@H](CO)C(=O)N[C@@H](CO)C(=O)NCC(=O)N[C@@H](C)C(=O)N1CCC[C@H]1C(=O)N1CCC[C@H]1C(=O)N1CCC[C@H]1C(=O)N[C@@H](CO)C(N)=O)[C@@H](C)CC)C(=O)O
# B6: SEQ ID NO: 15 (peptide)
# peptide: Y[Aib]EGTFTSDLSIQK([γGlu-Stearoyl])EKRAA[Aib]EFIEWLKNTGPSSGAPPPS-NH2
# modifications: N-terminus assumed
# SMILES: CCCCCCCCCCCCCCCCCC(=O)N[C@@H](CCC(=O)NCCCC[C@H](NC(=O)[C@H](CCC(N)=O)NC(=O)[C@@H](NC(=O)[C@H](CO)NC(=O)[C@H](CC(C)C)NC(=O)[C@H](CC(=O)O)NC(=O)[C@H](CO)NC(=O)[C@@H](NC(=O)[C@H](Cc1ccccc1)NC(=O)[C@@H](NC(=O)CNC(=O)[C@H](CCC(=O)O)NC(=O)C(C)(C)NC(=O)[C@@H](N)Cc1ccc(O)cc1)[C@@H](C)O)[C@@H](C)O)[C@@H](C)CC)C(=O)N[C@@H](CCC(=O)O)C(=O)N[C@@H](CCCCN)C(=O)N[C@@H](CCCNC(=N)N)C(=O)N[C@@H](C)C(=O)N[C@@H](C)C(=O)NC(C)(C)C(=O)N[C@@H](CCC(=O)O)C(=O)N[C@@H](Cc1ccccc1)C(=O)N[C@H](C(=O)N[C@@H](CCC(=O)O)C(=O)N[C@@H](Cc1c[nH]c2ccccc12)C(=O)N[C@@H](CC(C)C)C(=O)N[C@@H](CCCCN)C(=O)N[C@@H](CC(N)=O)C(=O)N[C@H](C(=O)NCC(=O)N1CCC[C@H]1C(=O)N[C@@H](CO)C(=O)N[C@@H](CO)C(=O)NCC(=O)N[C@@H](C)C(=O)N1CCC[C@H]1C(=O)N1CCC[C@H]1C(=O)N1CCC[C@H]1C(=O)N[C@@H](CO)C(N)=O)[C@@H](C)O)[C@@H](C)CC)C(=O)O
# Target: human GLP-1 receptor (human, UniProt P43220 24-463)
# Test: cell-based or functional assay
row,Binder,EC50 hGLP-1 R [pM]
1,B1,7.6
2,B2,5.3
3,B3,13.2
4,B4,6.7
5,B5,4.3

# Target: T1, human GIP receptor
# Test: cell-based or functional assay
row,Binder,EC50 hGIP R [pM]
1,B2,9.8
2,B3,15.1
3,B6,8.2
4,B4,11.2
5,B5,8.5

# Target: human glucagon receptor (human, UniProt P47871 26-477)
# Sequence (P47871 26-477): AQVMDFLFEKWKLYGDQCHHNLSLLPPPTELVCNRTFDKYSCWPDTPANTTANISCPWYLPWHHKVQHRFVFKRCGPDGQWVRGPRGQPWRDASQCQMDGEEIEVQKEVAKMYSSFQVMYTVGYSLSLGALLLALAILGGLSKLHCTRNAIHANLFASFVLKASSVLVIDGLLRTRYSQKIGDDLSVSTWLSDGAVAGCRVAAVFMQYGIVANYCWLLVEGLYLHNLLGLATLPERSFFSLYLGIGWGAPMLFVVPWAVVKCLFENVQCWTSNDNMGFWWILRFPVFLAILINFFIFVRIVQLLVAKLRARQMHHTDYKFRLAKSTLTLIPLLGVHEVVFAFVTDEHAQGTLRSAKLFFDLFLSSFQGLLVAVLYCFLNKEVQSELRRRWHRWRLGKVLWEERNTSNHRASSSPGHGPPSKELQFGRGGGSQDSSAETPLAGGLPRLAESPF
# Test: cell-based or functional assay
row,Binder,EC50 hGLUC R [pM]
1,B1,4950
2,B2,18.3
3,B3,40000
4,B6,5810
5,B4,11.4
6,B5,19300
